# Data reported in publication PMC7717579, “Phosphoregulation of HORMA domain protein HIM-3 promotes asymmetric synaptonemal complex disassembly in meiotic prophase in Caenorhabditis elegans” (PLoS Genetics, 2020).
# Non-standard residues stand in square brackets, D forms with d. No end group written: not given here. pY = N[C@@H](Cc1ccc(OP(=O)(O)O)cc1)C(=O)O
# Target: T1, HTP-2 protein (full length) (C. elegans)
# T1 construct: HTP-2, HORMA domain protein of the meiotic chromosome axis, C. elegans, full length; also called HTP-2 proteins
# Assay: fluorescence polarisation; 50 nM FITC peptide with various concentrations of HTP-2; 20 mM Tris pH 7.5, 300 mM NaCl, 10% glycerol, 1 mM DTT, 0.1% NP-40; 1 hour at room temperature; 384-well plates; single-site binding model
# Details: both partners purified
row,Kd,Binder
1,11.3 µM,"RDSPYGLAQGITKKNKD (also: fluorescein (FITC) conjugated, site not given here) [HIM-3 closure motif peptide with the S282A substitution, fluorescein-tagged]"
2,5.8 µM,"RDSPYGLSQGITKKNKD (also: fluorescein (FITC) conjugated, site not given here) [HIM-3 closure motif peptide, unmodified (wild type), fluorescein-tagged]"
3,16.1 µM,"RDSP[pY]GLSQGITKKNKD (also: fluorescein (FITC) conjugated, site not given here) [HIM-3 closure motif peptide phosphorylated at Tyr279, fluorescein-tagged]"
